In PMC5201024:

Target: MST3/4 (endogenous MST3 and MST4, m10/m11)
Assay: co-immunoprecipitation (anti-Myc IP, immunoblot quantification)
Conditions: HeLa cells co-transfected with Myc-RHOA-Q63L and GFP-FAM65A full-length; n=3 independent experiments; read off a plot

response (IP/Input ratio (arbitrary units)): 4.6
Substance: RHOA wild type (P61586) Q63L
